{"source": "paper PMC7305210", "about": "“Mitochondria-adaptor TRAK1 promotes kinesin-1 driven transport in crowded environments” (Nature Communications, 2020)", "binders": {"B1": {"name": "GFP-labelled KIF5B∆ (KIF5B without the inhibitory domain, amino acids 906-963) (domain or fragment, human, UniProt P33176 1-905, looked up)", "chain": "MADLAECNIKVMCRFRPLNESEVNRGDKYIAKFQGEDTVVIASKPYAFDRVFQSSTSQEQVYNDCAKKIVKDVLEGYNGTIFAYGQTSSGKTHTMEGKLHDPEGMGIIPRIVQDIFNYIYSMDENLEFHIKVSYFEIYLDKIRDLLDVSKTNLSVHEDKNRVPYVKGCTERFVCSPDEVMDTIDEGKSNRHVAVTNMNEHSSRSHSIFLINVKQENTQTEQKLSGKLYLVDLAGSEKVSKTGAEGAVLDEAKNINKSLSALGNVISALAEGSTYVPYRDSKMTRILQDSLGGNCRTTIVICCSPSSYNESETKSTLLFGQRAKTIKNTVCVNVELTAEQWKKKYEKEKEKNKILRNTIQWLENELNRWRNGETVPIDEQFDKEKANLEAFTVDKDITLTNDKPATAIGVIGNFTDAERRKCEEEIAKLYKQLDDKDEEINQQSQLVEKLKTQMLDQEELLASTRRDQDNMQAELNRLQAENDASKEEVKEVLQALEELAVNYDQKSQEVEDKTKEYELLSDELNQKSATLASIDAELQKLKEMTNHQKKRAAEMMASLLKDLAEIGIAVGNNDVKQPEGTGMIDEEFTVARLYISKMKSEVKTMVKRCKQLESTQTESNKKMEENEKELAACQLRISQHEAKIKSLTEYLQNVEQKKRQLEESVDALSEELVQLRAQEKVHEMEKEHLNKVQTANEVKQAVEQQIQSHRETHQKQISSLRDEVEAKAKLITDLQDQNQKMMLEQERLRVEHEKLKATDQEKSRKLHELTVMQDRREQARQDLKGLEETVAKELQTLHNLRKLFVQDLATRVKKSAEIDSDDTGGSAAQKQKISFLENNLEQLTKVHKQLVRDNADLRCELPKLEKRLRATAERVKALESALKEAKENASRDRKRYQQEVDRIKEA", "notes": "Constitutively active construct; also called KIF5B∆-GFP; source: SF9 insect cells (FlexiBAC baculovirus), purified (Ni-NTA, 6xHis cleaved by 3C PreScission protease, second Ni-NTA); not shown: GFP, C-terminal, kept; 6xHis, C-terminal, cleaved"}, "B2": {"name": "unlabelled KIF5B∆ (domain or fragment, human, UniProt P33176 1-905, looked up)", "chain": "B1 chain", "notes": "KIF5B, kinesin-1 heavy chain, human, amino acids 1-905; The methods describe only vectors with a C-terminal fluorescent tag; also called recombinant KIF5B∆; source: SF9 insect cells (all KIF5B constructs), purified"}}, "key": {"[1]": {"molecular_target": "the molecule itself", "assay": "single-molecule fluorescence intensity distributions (TIRF) with labelling efficiencies from SEC absorption; intensity distributions of KIF5B∆-mCherry compared with mCherry-TRAK1 in the motility experiments; labelling efficiencies about 22% and about 88%"}, "[2]": {"molecular_target": "T1, mCherry-labelled full-length TRAK1 (human (by the printed accession …, UniProt Q9UPV9-1 1-953))", "T1 construct": "TRAK1 (trafficking kinesin protein 1), cDNA KIAA1042 from the Kazusa DNA Research Institute; 953 residues by the printed region 636-953; also called mCherry-TRAK1; trafficking kinesin protein 1; source: HEK293T cells, transfected, purified (StrepTactinXT, eluted by TEV cleavage of the N-terminal tag, Superose 6 SEC); not shown: mCherry, N-terminal, kept; TwinStrep-FLAG-Halo, N-terminal, cleaved", "T1 sequence (looked up)": "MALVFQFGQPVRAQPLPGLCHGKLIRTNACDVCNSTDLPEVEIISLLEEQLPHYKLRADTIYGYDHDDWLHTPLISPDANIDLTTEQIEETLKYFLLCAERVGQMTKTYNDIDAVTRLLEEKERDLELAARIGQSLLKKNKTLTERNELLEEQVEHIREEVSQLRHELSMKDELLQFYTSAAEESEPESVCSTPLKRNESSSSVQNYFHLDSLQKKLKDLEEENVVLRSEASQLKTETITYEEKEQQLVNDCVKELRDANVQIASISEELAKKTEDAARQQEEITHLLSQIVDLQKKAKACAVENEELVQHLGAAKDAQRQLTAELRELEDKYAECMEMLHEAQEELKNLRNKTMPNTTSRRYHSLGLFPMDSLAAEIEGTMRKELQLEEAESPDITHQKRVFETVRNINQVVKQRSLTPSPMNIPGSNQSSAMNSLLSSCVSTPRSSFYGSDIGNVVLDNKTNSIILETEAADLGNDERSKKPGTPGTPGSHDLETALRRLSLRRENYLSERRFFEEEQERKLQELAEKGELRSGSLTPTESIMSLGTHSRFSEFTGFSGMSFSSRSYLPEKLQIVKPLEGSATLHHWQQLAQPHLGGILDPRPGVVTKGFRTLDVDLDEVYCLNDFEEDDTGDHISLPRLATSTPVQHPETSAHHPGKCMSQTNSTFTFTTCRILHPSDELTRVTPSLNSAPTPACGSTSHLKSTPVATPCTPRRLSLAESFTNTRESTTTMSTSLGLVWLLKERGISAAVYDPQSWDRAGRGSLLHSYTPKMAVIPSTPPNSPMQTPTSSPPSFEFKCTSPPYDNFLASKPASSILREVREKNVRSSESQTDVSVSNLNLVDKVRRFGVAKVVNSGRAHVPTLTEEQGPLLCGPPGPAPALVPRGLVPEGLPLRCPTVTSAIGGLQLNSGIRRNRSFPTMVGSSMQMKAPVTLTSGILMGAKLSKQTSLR", "assay": "single-molecule TIRF microscopy, two-colour co-movement on immobilised microtubules; KIF5B construct and 175 nM TRAK1 construct pre-incubated 10 min on ice, flushed onto bare immobilised microtubules in motility buffer with 1 mM Mg-ATP; room temperature; for the complexes traces of the mCherry-TRAK1 channel analysed", "settings": "both partners purified"}, "[3]": {"molecular_target": "T1, mCherry-labelled full-length TRAK1", "assay": "TIRF microscopy, reconstituted transport of mitochondria on immobilised microtubules; 2 nM unlabeled KIF5B∆, 100 nM mCherry-TRAK1 and 10 µg isolated mitochondria-GFP (4T1 cells) pre-incubated on ice, flushed onto immobilised microtubules; room temperature", "settings": "both partners purified"}}}
{"binder": "B1", "values": [{"measurement": "stoichiometry N", "setting": "[1]", "value": 2}, {"measurement": "binding result", "setting": "[2]", "value": "binds"}]}
{"binder": "B2", "values": [{"measurement": "binding result", "setting": "[3]", "value": "binds"}]}
